Each block holds one molecule with its values, some of them ahead of it.
Key:
[1] = biological target: ERGIC-53 ΔH34 mutant with a C-terminal FLAG (human) (UniProt P49257); test: cryo-EM structure; ERGIC-53 ΔH34-MCFD2 complex, 1.7 mg/ml
[2] = biological target: T1, full-length human ERGIC-53 with a C-terminal PA tag (human, UniProt P49257 31-510); test: SEC-MALS; Superdex 200 Increase 3.2/300; 20 mM Tris-HCl pH 7.5, 150 mM NaCl, 10 mM CaCl2, 0.02% GDN; samples 1.6-1.7 mg/ml; conjugate analysis (MALS-UV-RI); ERGIC-53 alone and its complex with MCFD2; details: both partners purified
T1 construct: ERGIC-53 (LMAN1), human, full length; cDNA subcloned from a HeLa cDNA library; Eluted from the beads with PA peptide; no step that removes the tag is described; Treated with 1 mM diamide before SEC; mixture of covalent (disulfide-linked) and noncovalent tetramers; The CRD is numbered from residue 31, so the signal peptide is probably cut off in the cells (surmised); also called LMAN1; P58
T1 sequence (looked up): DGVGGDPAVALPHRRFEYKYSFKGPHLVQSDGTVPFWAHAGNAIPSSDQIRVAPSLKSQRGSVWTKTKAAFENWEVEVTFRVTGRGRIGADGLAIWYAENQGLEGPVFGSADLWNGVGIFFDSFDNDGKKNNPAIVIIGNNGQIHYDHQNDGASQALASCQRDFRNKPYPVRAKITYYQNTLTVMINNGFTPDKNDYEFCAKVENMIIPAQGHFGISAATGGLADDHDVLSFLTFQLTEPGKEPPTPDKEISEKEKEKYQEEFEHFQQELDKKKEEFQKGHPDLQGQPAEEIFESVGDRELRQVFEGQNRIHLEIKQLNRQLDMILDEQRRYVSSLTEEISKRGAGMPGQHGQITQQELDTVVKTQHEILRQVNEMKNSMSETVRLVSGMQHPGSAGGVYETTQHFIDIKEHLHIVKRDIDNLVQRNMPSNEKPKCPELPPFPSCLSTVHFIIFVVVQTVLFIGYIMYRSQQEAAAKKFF

[3] = biological target: T2, full-length human ERGIC-53 with a C-terminal PA tag (human), P49257; test: SEC-MALS; ERGIC-53 at weakly acidic Golgi pH (pH 6.5); details: remark: other sources report otherwise
T2 chain: T1 sequence (looked up)

[4] = biological target: T2, full-length human ERGIC-53 with a …; test: cryo-EM structure; full-length ERGIC-53 with MCFD2, 4-5 mg/ml in GDN with 3 mM fluorinated Fos-Choline-8; head region forms A and B, four substates, and full-length map; details: remark: other sources report otherwise
[5] = biological target: T2, full-length human ERGIC-53 with a …; test: SEC-MALS; Superdex 200 Increase 3.2/300; 20 mM Tris-HCl pH 7.5, 150 mM NaCl, 10 mM CaCl2, 0.02% GDN; samples 1.6-1.7 mg/ml; conjugate analysis (MALS-UV-RI); ERGIC-53 alone and its complex with MCFD2; details: remark: other sources report otherwise

- stoichiometry N [1]: 4
Molecule: ERGIC-53 ΔH34 mutant with a C-terminal FLAG (from UniProt P49257 31-510) (receptor)

- stoichiometry N [2]: 1
B1: human MCFD2 lumen domain (residues 27-146) (domain or fragment, UniProt Q8NI22 27-146, looked up)
chain: EEPAASFSQPGSMGLDKNTVHDQEHIMEHLEGVINKPEAEMSPQELQLHYFKMHDYDGNNLLDGLELSTAITHVHKEEGSEQAPLMSEDELINIIDGVLRDDDKNNDGYIDYAEFAKSLQ
notes: MCFD2, human, lumen domain, residues 27-146, in pET15b; Thrombin cleavage of the pET15b His tag probably leaves a few vector residues at the N-terminus (surmised); also called multiple coagulation factor deficiency 2; source: E. coli BL21 (DE3), purified (Ni-NTA, MonoQ, thrombin cleavage, SEC); not shown: His tag, N-terminal, cleaved

- stoichiometry N [3]: 4
- stoichiometry N [4]: 4
- stoichiometry N [5]: 4
B2: full-length human ERGIC-53 with a C-terminal PA tag, P49257 31-510 (receptor)
chain: T1 sequence (looked up)
